Drawing on patent publication US20210052718A1, this text covers ELISA OD for one substance.

Assay [1] has as its target Live RSV (A2 strain) (respiratory syncytial virus A2 strain) (UniProt P03420). Nature of the assay: ELISA on coated virus; grade +++ = OD 1-1.5.
In assay [2] the target is Split RSV37° C. (standard preparation of inactivated split RSV vaccine) (respiratory syncytial virus) (UniProt P03420). Nature of the assay: ELISA on coated virus preparation; grade +++++ = OD 2-2.5.
Assay [3] deals with FI-RSV (post F): formalin-inactivated whole RSV (respiratory syncytial virus) (UniProt P03420). Briefly: ELISA on coated virus preparation; grade +++ = OD 1-1.5.
Assay [4] deals with Split RSV4° C. (inactivated at low temperature (4° C.) and split) (respiratory syncytial virus) (UniProt P03420). Briefly: ELISA on coated virus preparation; grade ++++++ = OD >2.5.
Sequence of Split RSV4° C. (inactivated at low temperature (4° C.) and split) (respiratory syncytial virus) (P03420 26-574): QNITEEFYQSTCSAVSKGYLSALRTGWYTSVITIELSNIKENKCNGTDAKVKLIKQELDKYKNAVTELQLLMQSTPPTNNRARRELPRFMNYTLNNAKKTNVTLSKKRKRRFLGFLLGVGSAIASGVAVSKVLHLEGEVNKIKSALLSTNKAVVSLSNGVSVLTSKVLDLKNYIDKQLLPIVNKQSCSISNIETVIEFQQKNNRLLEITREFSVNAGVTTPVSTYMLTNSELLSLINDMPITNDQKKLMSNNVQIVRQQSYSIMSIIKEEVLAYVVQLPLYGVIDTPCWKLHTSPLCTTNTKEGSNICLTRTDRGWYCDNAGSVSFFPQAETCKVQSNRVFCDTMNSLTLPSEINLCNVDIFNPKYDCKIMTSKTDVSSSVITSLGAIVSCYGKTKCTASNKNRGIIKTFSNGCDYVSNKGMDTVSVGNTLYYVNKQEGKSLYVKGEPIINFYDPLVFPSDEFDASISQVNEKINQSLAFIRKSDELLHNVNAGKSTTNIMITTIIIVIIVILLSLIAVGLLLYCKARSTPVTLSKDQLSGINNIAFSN

Sequence of Split RSV37° C. (standard preparation of inactivated split RSV vaccine) (respiratory syncytial virus) (P03420 26-574): as above
Sequence of Live RSV (A2 strain) (respiratory syncytial virus A2 strain) (P03420 26-574): as above
Sequence of UniProt P03420 (P03420 26-574): as above

Take palivizumab (antibody): the ELISA OD in assay [1] is 1 to 1.5 od; in assay [2], 2 to 2.5 od; in assay [3], 1 to 1.5 od; in assay [4], > 2.5 od.
